Legend:
[1] = biological target: T1, HIV-1 integrase wild-type (IN1-288) (Human immunodeficiency virus 1, UniProt P04585 P04585:1148-1435); assay: inhibition; 3'-processing column as printed; strand transfer column 0.159; conditions: G4
[2] = biological target: T1, HIV-1 integrase wild-type (IN1-288); assay: inhibition; 3'-processing column as printed; strand transfer column 0.059; conditions: G4
[3] = biological target: T1, HIV-1 integrase wild-type (IN1-288); assay: inhibition; 3'-processing column as printed; strand transfer column 0.090; conditions: G4
[4] = biological target: HIV-1 nucleocapsid protein (Human immunodeficiency virus 1, UniProt P04591 P04591:378-432); assay: binds efficiently, data not shown; conditions: G4
SIV integrase = biological target: T2, SIV integrase (Simian immunodeficiency virus, UniProt P05896 P05896:1156-1448); assay: inhibition; 3'-processing; conditions: G4
T2 sequence: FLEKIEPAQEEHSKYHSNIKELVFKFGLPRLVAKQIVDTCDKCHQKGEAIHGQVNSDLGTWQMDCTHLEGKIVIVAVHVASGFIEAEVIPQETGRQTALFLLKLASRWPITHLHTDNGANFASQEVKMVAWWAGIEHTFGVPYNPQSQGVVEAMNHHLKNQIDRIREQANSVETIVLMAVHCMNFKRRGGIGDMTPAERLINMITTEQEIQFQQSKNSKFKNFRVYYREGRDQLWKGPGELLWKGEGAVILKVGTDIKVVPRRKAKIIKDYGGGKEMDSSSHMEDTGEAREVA

FIV integrase = FIV integrase (Feline immunodeficiency virus, UniProt P16088 P16088:844-1124); assay: inhibition; 3'-processing; conditions: G4
HIV-1 gp120 = HIV-1 gp120 (Human immunodeficiency virus 1, UniProt P04578 P04578:33-511); assay: competition; PT oligonucleotide inhibits V3 loop Mab binding to immobilized gp120; conditions: tags: immobilized
[5] = biological target: T1, HIV-1 integrase wild-type (IN1-288); assay: inhibition; 3'-processing column as printed; strand transfer column 0.485; conditions: G4
[6] = biological target: T1, HIV-1 integrase wild-type (IN1-288); assay: inhibition; 3'-processing column as printed; strand transfer column 0.110; conditions: G4
[7] = biological target: T1, HIV-1 integrase wild-type (IN1-288); assay: inhibition; 3'-processing; other column (strand transfer) 0.870; Table B-7 gives >0.50; only modest inhibition of U5 DNA binding at 500 nM (FIG. 25); conditions: G4
[8] = biological target: FMLV reverse transcriptase (Friend murine leukemia virus, UniProt P26810 P26810:661-1331); assay: inhibition; reverse transcriptase activity in culture medium; conditions: protein: virion; tags: culture medium of chronically infected NIH3T3 cells
[9] = biological target: T1, HIV-1 integrase wild-type (IN1-288); assay: inhibition; 3'-processing column as printed; strand transfer column 0.129; conditions: G4

Q: For GTGGTTGGTGGGTGGGT (structured_DNA, PS at first and last linkage) [T30679], which IC50 [1] is on record?
A: 156 nM

Q: GGGGTGGTGGGTGGGT (structured_DNA, C-5 propynyl dU at capital T; PS at first and last linkage) [T30720] was tested. Which IC50 [2] did it give?
A: 62 nM

Q: Which IC50 [3] does the source give for GTGGTGGGTGGGTGGGT (structured_DNA, 5-bromo dU at 13; PS at first and last linkage [n positions 13 = modified dU]) [T30570] here?
A: 70 nM

Q: Which results are given for GTGGTGGGTGGGTGGGT (structured_DNA, PS at first and last linkage (pPT)) [T30177 (AR177)]?
A: binding result [4]: binds; IC50 (SIV integrase): 420 nM; IC50 (FIV integrase): 175 nM

Q: Does GTGGTGGGTGGGTGGGTGGTGGGTGGTGGTTGTGGGTGGGTGGTG (ssDNA, PS all linkages) [I100-21] bind (HIV-1 gp120)?
A: binds

Q: Which IC50 [5] does the source give for GTGGTGGGTGTGGTTGGT (structured_DNA, PS at first and last linkage) [T30675] here?
A: 500 nM

Q: For GTGGTGGGTGGGTGGGT (structured_DNA, 3'-cholesterol via triglycyl linker) [T30075], which IC50 [6] is on record?
A: 95 nM

Q: GGTTGGTGTGGTTGG (structured_DNA, PS at first and last linkage (Table B-7; Table C-1 says PT)) [T30659 thrombin binding aptamer pPT] was tested. Which IC50 [7] did it give?
A: 750 nM

Q: GTTGGGGGTTGTTGGTGGGGTGGTGG (ssDNA, PS all linkages) [I100-12] was tested. Which IC50 [8] did it give?
A: < 500 nM

Q: How did the IC50 [9] turn out when GTGGGTGGTGGGTGGGT (structured_DNA, C-5 propynyl dU at capital T; PS at first and last linkage) [T30722] was run?
A: 134 nM

Q: Does GGGTGGGTGGGTGGGTGG (ssDNA, PS all linkages) [1174] bind (HIV-1 gp120)?
A: binds

— US6288042, “Anti-viral guanosine-rich tetrad forming oligonucleotides” (Aronex Pharmaceuticals, Inc.)
